Laboratory results published in publication PMC10841737 (Biochemistry, 2023).
Where two headings read alike, the source gives them in different places. Each block holds one binder with its values, some of them ahead of it.

What was measured:
[1] = biological target: T1, Cdc13 (Saccharomyces cerevisiae, UniProt P32797 1-924); experiment: EMSA
T1 sequence: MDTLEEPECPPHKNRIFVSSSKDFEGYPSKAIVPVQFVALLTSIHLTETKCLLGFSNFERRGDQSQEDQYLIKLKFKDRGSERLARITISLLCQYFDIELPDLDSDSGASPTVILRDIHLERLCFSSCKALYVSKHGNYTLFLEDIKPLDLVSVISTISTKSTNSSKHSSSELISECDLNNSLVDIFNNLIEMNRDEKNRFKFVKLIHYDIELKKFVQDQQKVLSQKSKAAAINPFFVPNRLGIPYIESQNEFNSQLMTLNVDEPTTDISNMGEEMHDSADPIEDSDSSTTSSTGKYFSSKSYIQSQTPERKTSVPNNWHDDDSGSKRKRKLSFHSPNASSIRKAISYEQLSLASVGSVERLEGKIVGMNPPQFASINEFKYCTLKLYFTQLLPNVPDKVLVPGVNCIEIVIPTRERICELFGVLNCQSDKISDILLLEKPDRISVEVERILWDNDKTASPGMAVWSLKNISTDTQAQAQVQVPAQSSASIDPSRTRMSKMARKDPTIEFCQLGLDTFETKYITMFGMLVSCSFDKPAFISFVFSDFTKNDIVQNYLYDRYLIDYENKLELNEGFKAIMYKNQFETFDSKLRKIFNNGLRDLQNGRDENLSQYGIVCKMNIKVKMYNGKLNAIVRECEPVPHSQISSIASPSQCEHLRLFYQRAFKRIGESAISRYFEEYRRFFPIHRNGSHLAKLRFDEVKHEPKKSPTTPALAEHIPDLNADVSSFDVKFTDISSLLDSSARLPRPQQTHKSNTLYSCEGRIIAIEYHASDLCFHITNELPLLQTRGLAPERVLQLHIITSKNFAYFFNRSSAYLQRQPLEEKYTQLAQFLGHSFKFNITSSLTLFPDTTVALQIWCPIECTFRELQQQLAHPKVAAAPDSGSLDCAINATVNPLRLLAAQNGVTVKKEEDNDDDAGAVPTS

[2] = biological target: T1, Cdc13; experiment: EMSA; remark: listed apart in the source
[3] = biological target: T2, S. cerevisiae Pif1 helicase (S. cerevisiae, UniProt P07271 46-859); experiment: fluorescence polarisation
T2 sequence (looked up): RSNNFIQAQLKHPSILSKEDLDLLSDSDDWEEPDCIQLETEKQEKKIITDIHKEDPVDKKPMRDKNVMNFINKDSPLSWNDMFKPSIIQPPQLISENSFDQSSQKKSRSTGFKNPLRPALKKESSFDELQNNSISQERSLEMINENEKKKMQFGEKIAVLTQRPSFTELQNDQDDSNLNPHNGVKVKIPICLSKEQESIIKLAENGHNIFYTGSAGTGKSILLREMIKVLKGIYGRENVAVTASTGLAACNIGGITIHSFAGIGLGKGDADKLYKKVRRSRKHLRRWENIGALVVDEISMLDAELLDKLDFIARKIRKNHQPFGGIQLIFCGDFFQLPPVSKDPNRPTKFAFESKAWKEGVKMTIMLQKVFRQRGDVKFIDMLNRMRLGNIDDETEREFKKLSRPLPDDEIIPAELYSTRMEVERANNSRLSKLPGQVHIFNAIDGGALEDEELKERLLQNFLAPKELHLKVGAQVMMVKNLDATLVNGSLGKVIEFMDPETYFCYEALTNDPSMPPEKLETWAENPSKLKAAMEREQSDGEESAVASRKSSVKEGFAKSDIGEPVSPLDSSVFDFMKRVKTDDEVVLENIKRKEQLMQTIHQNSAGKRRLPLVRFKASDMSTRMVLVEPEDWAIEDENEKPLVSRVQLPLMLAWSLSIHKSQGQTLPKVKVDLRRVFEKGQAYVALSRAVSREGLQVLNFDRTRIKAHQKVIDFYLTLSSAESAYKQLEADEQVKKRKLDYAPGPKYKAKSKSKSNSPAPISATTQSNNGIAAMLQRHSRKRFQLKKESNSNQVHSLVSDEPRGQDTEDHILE

[4] = biological target: T1, Cdc13; experiment: EMSA; remark: listed apart in the source
[5] = biological target: T3, Cy5-Sub1 (Sub1-Cys) (Saccharomyces cerevisiae, UniProt P54000 1-292+=C, internal_change); experiment: stopped-flow FRET dissociation
T3 sequence: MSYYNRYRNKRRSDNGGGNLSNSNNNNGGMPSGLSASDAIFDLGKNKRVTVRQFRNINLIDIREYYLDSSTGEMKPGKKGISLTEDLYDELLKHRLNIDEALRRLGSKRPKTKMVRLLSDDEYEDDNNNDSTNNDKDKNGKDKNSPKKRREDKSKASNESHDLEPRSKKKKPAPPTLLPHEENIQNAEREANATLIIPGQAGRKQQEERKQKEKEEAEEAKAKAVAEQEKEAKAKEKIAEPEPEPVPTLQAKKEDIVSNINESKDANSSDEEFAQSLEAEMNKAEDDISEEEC

[6] = biological target: T3, Cy5-Sub1 (Sub1-Cys); experiment: filter binding
[7] = biological target: T4, Sub1 (Saccharomyces cerevisiae, UniProt P54000 1-292); experiment: filter binding
T4 sequence: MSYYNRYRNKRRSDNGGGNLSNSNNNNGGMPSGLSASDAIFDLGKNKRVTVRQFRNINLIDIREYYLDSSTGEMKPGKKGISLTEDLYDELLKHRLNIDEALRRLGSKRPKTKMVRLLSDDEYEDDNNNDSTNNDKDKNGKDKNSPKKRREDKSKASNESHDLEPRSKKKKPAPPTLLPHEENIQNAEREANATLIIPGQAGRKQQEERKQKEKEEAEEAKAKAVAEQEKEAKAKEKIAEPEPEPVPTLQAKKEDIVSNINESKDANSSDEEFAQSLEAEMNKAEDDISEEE

[8] = biological target: T1, Cdc13; experiment: EMSA; remark: listed apart in the source

B1: Tel11 (G7C/G9C) (ssDNA)
DNA: GTGTGGCTCTG
apparent K (half saturation) [1]: 96.7 ± 3 nM

B2: 12 nt Mixed seq (ssDNA)
DNA: CGCTGATGTCGC
apparent K (half saturation) [2]: 124 ± 8.8 nM

Kd [3]: 53 nM
B3: Cy5-labeled Sub1 (Sub1-Cys variant labeled with Cy5-maleimide) (natural protein, yeast (S. cerevisiae), UniProt P54000 1-292, looked up)
chain: T3 sequence
modifications: Cy5 (maleimide) on the cysteine added at the C-terminal end; one molecule of Cy5 dye per protein

B4: Tel11 (G1C) (ssDNA)
DNA: CTGTGGGTGTG
apparent K (half saturation) [4]: 150 ± 14.7 nM

B5: Cy3-G4 DNA (structured_DNA)
DNA: TTTTTTTTTTTTTTGAGGGTGGGTAGGGTGGGT
binding result [5]: binds

B6: G4DNA (structured_DNA)
DNA: TTTTTTTTTTTTTTTGAGGGTGGGTAGGGTGGGTAA
Kd [6]: 2.9 ± 1.3 nM
Kd [7]: 0.86 ± 0.18 nM

B7: Tel11 telomere seq (ssDNA)
DNA: GTGTGGGTGTG
apparent K (half saturation) [8]: 15.3 ± 0.9 nM
